In article PMC7350762 one finds reduction in MKL-1 transactivation of the Foxp3 reporter (luciferase assay, HEK-293 T cells) by the mutation of the TAD of MKL-1 data, which are given here for one substance.

This assay concerns the target Myc-tagged MKL-1 (1–705) (MKL-1△TAD) (UniProt Q969V6).
Sequence of UniProt Q969V6 (Q969V6 1-705): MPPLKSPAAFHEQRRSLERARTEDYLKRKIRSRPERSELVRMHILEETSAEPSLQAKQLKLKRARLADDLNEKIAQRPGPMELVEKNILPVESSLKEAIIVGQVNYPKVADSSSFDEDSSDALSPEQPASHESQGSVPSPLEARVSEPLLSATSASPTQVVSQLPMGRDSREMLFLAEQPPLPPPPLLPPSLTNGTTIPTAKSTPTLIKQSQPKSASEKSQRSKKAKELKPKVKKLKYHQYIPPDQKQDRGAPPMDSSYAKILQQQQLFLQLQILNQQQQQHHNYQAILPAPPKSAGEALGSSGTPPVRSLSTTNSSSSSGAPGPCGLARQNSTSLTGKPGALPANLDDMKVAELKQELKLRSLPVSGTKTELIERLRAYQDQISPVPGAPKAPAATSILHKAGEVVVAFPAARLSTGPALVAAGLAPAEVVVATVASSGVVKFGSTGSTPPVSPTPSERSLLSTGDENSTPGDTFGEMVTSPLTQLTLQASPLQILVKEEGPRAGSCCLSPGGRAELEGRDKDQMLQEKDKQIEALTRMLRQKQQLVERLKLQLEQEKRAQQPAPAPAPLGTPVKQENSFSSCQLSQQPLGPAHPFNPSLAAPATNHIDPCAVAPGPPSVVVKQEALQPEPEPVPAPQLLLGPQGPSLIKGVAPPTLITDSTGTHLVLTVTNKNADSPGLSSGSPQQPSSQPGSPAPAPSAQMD

As to “Flag-tagged STAT5b (WT-STAT5b) (from UniProt P51692 1-787) (natural protein)”, the reduction in MKL-1 transactivation of the Foxp3 reporter (luciferase assay, HEK-293 T cells) by the mutation of the TAD of MKL-1 stood at 60%.
